# Source: publication PMC5729022
# What was measured:
# [1] = molecular target: network soluble collagen type IV from human placenta (human) (UniProt P02462)
# [2] = molecular target: insoluble microfibrillar collagen type I from bovine skin, Col I(D) (bovine) (UniProt P02453)
# [3] = molecular target: soluble fibrillar collagen type II from bovine tracheal cartilage (bovine) (UniProt P02459)
# [4] = molecular target: insoluble microfibrillar collagen type I from bovine Achilles tendon, Col I(S) (bovine) (UniProt P02453)
# [5] = molecular target: soluble fibrillar collagen type III from human placenta (human) (UniProt P02461)
# Sequence of UniProt P02461 (P02461 154-1221): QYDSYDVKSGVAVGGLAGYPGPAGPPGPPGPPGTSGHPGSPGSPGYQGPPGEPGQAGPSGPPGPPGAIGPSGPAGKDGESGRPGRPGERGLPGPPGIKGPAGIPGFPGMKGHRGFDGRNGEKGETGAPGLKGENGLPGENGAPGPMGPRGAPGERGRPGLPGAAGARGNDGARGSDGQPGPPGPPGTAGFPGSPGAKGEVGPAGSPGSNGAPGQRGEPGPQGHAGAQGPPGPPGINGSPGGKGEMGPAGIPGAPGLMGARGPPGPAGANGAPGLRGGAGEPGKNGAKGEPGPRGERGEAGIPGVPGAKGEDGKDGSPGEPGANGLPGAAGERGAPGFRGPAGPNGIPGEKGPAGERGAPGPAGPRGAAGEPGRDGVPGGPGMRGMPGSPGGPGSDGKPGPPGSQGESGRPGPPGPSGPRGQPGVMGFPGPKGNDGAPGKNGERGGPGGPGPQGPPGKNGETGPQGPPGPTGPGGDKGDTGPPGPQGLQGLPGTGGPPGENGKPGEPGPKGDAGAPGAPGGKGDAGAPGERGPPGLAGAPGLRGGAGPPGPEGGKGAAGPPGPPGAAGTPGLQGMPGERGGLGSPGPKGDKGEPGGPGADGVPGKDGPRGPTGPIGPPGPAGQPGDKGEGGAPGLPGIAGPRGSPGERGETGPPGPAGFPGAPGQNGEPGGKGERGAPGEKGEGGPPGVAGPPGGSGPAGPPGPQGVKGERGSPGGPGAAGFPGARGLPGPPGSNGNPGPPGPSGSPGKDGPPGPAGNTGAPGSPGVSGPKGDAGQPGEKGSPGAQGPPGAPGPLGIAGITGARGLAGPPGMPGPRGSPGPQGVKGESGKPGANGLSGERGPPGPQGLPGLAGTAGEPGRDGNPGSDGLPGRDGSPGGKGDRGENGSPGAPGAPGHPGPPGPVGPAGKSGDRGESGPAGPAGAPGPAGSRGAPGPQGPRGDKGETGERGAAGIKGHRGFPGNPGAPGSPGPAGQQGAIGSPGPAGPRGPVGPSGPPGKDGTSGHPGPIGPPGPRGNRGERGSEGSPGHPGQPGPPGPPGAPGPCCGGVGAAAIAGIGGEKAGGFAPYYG
# Sequence of UniProt P02459 (P02459 182-1241): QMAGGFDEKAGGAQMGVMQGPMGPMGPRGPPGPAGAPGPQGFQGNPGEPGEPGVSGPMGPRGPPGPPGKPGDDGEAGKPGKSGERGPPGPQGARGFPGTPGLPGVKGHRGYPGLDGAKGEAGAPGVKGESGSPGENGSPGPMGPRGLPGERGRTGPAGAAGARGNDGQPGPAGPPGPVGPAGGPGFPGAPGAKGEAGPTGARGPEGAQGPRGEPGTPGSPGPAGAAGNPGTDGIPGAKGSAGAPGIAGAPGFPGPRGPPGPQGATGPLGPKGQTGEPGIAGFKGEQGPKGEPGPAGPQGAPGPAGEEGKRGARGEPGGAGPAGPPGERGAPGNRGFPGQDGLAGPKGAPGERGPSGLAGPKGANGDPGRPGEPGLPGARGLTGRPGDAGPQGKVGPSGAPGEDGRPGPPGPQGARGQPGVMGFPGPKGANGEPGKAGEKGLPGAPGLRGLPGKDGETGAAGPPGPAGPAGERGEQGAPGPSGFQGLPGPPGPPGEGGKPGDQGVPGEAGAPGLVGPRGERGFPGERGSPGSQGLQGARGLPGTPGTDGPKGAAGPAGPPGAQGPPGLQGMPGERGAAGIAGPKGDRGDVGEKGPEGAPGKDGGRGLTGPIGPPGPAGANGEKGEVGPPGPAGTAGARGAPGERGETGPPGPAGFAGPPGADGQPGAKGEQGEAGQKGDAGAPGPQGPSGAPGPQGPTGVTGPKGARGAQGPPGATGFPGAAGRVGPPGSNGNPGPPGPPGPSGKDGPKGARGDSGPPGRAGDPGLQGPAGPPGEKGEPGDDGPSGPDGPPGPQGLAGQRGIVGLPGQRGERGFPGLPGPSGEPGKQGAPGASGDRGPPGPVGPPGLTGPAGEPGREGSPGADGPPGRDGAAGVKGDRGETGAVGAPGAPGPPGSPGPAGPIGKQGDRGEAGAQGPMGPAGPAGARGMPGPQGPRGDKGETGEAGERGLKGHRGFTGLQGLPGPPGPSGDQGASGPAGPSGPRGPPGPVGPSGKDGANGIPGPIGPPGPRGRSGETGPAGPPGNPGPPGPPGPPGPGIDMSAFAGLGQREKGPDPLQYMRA
substance,measurement,setting,value
recombinant human integrin α1 I domain (GST fusion) (from UniProt P56199 169-363) (domain or fragment),"percent of C2C12 cells transfected with human integrin α1 adhering to the collagen coating, 5 mM Mg2+, LDH assay, 1 × 10^5 cells/ml",[1],51.9%
recombinant rat integrin α1 I domain (GST fusion) (domain or fragment),"percent of Rugli cells (endogenous rat α1β1) adhering to the collagen coating, 5 mM Mg2+, LDH assay, 1 × 10^5 cells/ml",[2],27%
same,"percent of Rugli cells (endogenous rat α1β1) adhering to the collagen coating, 5 mM Mg2+, LDH assay, 1 × 10^5 cells/ml",[3],18.9%
same,"percent of Rugli cells (endogenous rat α1β1) adhering to the collagen coating, 5 mM Mg2+, LDH assay, 1 × 10^5 cells/ml",[4],22.8%
same,"percent of Rugli cells (endogenous rat α1β1) adhering to the collagen coating, 5 mM Mg2+, LDH assay, 1 × 10^5 cells/ml",[1],64.1%
same,"percent of Rugli cells (endogenous rat α1β1) adhering to the collagen coating, 5 mM Mg2+, LDH assay, 1 × 10^5 cells/ml",[5],55.6%
recombinant human integrin α2 I domain (GST fusion) (domain or fragment),"percent of C2C12 cells transfected with human integrin α2 adhering to the collagen coating, 5 mM Mg2+, LDH assay, 1 × 10^5 cells/ml",[2],36.5%
same,"percent of HT1080 cells (endogenous human α2β1) adhering to the collagen coating, 5 mM Mg2+, LDH assay, 1 × 10^5 cells/ml",[2],43.6%
same,"percent of C2C12 cells transfected with human integrin α2 adhering to the collagen coating, 5 mM Mg2+, LDH assay, 1 × 10^5 cells/ml",[3],23.9%
same,"percent of HT1080 cells (endogenous human α2β1) adhering to the collagen coating, 5 mM Mg2+, LDH assay, 1 × 10^5 cells/ml",[3],40.3%
same,"percent of C2C12 cells transfected with human integrin α2 adhering to the collagen coating, 5 mM Mg2+, LDH assay, 1 × 10^5 cells/ml",[4],44.2%
same,"percent of HT1080 cells (endogenous human α2β1) adhering to the collagen coating, 5 mM Mg2+, LDH assay, 1 × 10^5 cells/ml",[4],45.6%
same,"percent of C2C12 cells transfected with human integrin α2 adhering to the collagen coating, 5 mM Mg2+, LDH assay, 1 × 10^5 cells/ml",[1],16.1%
same,"percent of HT1080 cells (endogenous human α2β1) adhering to the collagen coating, 5 mM Mg2+, LDH assay, 1 × 10^5 cells/ml",[1],24.7%
same,"percent of C2C12 cells transfected with human integrin α2 adhering to the collagen coating, 5 mM Mg2+, LDH assay, 1 × 10^5 cells/ml",[5],18.5%
same,"percent of HT1080 cells (endogenous human α2β1) adhering to the collagen coating, 5 mM Mg2+, LDH assay, 1 × 10^5 cells/ml",[5],28.1%
